The target in assay [1] is site-specifically biotinylated IL-17RB, immobilized (human) (UniProt Q9NRM6). The assay is described as follows: SPR; Biacore T100; about 300 RU of site-specifically biotinylated IL-17RB immobilized on a Series S Sensor Chip SA; regeneration 2 M MgCl2; steady-state affinity analysis. For orientation: SPR reads the build-up and loss of mass on a sensor chip optically.
Assay [2] has as its target T1, IL-17RB (18-502) fused to the ALFA-tag, on HeLa cells (human) (UniProt Q9NRM6).
T1 sequence: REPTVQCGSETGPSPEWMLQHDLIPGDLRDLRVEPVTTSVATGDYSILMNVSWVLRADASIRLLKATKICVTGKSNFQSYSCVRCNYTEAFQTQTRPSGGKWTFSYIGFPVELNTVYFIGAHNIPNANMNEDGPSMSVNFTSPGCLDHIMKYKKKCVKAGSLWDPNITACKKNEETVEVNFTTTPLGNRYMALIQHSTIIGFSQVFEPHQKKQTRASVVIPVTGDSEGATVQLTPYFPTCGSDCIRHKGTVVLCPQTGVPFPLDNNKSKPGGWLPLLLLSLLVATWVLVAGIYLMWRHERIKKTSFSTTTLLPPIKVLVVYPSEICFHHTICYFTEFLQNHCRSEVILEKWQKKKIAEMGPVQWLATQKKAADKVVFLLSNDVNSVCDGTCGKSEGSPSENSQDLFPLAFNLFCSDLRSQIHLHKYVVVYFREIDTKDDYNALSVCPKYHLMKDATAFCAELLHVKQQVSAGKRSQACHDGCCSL

Another assay deals with T2, IL-17RB (1-288) (human, UniProt Q9NRM6 18-288).
T2 construct: signal peptide in the construct; IL-17 receptor B (IL-17RB), human, amino acids 1-288; Two constructs are named (C-terminal 3C-proteinC-8xHis in pVLAD6; C-terminal Avitag-6xHis in pD649); also called IL-17 receptor B; apo-IL-17RB
T2 sequence (looked up): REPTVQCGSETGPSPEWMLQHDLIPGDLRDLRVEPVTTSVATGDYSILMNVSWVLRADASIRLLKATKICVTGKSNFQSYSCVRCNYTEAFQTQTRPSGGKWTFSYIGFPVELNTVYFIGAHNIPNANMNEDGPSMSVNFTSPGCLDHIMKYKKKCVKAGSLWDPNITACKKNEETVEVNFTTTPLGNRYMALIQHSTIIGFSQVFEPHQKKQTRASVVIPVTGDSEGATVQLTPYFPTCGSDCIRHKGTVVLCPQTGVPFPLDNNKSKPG
The assay is described as follows: cryo-EM structure; IL-25 and IL-17RB co-expressed in Expi293F GnTI- cells and co-purified; 2:2 complex (3.18 Å) and higher-order 6:6 complex (4.39 Å) from one sample; HBS 20/150 pH 7.4. The conditions noted are these: both partners purified.

Where a chain is given by its changes, count along the chain named. Numbers in names are those of the source.

For orientation: Kd means the equilibrium constant for the complex coming apart. In assay [1], “IL-17RA (1-317) (from UniProt Q96F46 33-317) (receptor)” registered a dissociation constant Kd of 13.8 µM.

B1: IL-25 Y92A (ligand)
chain: THTYSHWPSCCPSKGQDTSEELLRWSTVPVPPLEPARPNRHPESCRASEDGPLNSRAISPWRAELDRDLNRLPQDLYHARCLCPHCVSLQTGSHMDPRGNSELLYHNQTVFYRRPCHGEKGTHKGYCLERRLYRVSLACVCVRPRVMG
For the molecule B1, the NF-κB reporter (SEAP) HEK293 cells expressing IL-17RA, ACT1 and endogenous IL-17RB, varying concentrations of IL-25 mutant: EC50 shift relative to WT IL-25 in assay [2] is > 3 log-fold.

B2: IL-25 (amino acids 30-177) (ligand, human, UniProt Q9H293 30-177, looked up)
chain: B1 chain with A63Y
notes: IL-25 (IL-17E), human, amino acids 30-177; Two constructs are named (Igk signal peptide with C-terminal 3C-cleavable Avitag-6xHis in pEG BacMam; HA signal peptide with C-terminal Avitag-6xHis in a lentiviral vector); also called IL-17E; WT IL-25
On to B2, for which the binding result with IL-17RB (1-288) is “binds”.

The record behind these values is publication PMC9477748, “Organizing structural principles of the IL-17 ligand–receptor axis” (Nature, 2022).
